Laboratory results taken from article PMC12169213 (Science (New York, N.Y.), 2025).
Values belong to the binder of their own block, whether it stands above or below them.

Experiments:
BRCA1-BARD1 = BRCA1-BARD1 (UniProt P38398 1-1863; Q99728 1-777); assay: pull-down
mCherry-BLM = mCherry-BLM (UniProt P54132 1-1417); assay: DNA curtain single-molecule imaging
Chain of mCherry-BLM (P54132 whole entry): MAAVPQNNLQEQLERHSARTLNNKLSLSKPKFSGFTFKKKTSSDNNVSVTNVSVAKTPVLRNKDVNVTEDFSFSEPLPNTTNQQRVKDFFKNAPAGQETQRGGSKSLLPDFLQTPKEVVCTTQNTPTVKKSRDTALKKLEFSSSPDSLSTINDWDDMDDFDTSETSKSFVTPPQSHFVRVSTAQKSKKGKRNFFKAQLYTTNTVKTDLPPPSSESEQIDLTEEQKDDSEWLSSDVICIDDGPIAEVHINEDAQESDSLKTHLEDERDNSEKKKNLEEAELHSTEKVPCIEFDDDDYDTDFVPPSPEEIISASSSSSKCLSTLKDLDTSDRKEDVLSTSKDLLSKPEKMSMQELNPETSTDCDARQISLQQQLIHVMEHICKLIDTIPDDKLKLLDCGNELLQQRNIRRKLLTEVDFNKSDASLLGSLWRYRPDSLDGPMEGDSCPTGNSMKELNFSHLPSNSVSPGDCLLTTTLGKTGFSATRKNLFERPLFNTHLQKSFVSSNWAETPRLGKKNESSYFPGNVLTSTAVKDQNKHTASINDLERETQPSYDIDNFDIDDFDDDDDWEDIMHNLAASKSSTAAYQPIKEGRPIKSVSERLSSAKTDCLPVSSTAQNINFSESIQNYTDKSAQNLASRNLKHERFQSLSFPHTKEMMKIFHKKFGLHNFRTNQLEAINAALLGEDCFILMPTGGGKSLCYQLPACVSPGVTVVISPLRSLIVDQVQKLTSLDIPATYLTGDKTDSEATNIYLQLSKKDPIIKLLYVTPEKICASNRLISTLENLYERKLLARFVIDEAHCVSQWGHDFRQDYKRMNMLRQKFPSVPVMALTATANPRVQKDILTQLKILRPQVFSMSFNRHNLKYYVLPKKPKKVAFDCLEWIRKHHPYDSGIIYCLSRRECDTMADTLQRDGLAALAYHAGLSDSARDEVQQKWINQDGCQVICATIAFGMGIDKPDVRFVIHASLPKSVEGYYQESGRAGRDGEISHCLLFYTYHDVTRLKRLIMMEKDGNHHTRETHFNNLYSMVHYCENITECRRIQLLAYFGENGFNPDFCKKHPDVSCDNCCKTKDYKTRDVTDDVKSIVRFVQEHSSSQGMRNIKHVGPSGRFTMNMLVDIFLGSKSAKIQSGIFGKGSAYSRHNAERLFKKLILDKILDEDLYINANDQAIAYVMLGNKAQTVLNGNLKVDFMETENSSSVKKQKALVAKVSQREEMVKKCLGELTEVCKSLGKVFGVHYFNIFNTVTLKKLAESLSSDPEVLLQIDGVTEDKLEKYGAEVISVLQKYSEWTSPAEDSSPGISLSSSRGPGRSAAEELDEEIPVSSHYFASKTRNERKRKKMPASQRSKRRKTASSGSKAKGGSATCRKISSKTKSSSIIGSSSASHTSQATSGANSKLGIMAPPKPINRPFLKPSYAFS

Chain of BRCA1-BARD1 (P38398 whole entry, chain 1 of 2): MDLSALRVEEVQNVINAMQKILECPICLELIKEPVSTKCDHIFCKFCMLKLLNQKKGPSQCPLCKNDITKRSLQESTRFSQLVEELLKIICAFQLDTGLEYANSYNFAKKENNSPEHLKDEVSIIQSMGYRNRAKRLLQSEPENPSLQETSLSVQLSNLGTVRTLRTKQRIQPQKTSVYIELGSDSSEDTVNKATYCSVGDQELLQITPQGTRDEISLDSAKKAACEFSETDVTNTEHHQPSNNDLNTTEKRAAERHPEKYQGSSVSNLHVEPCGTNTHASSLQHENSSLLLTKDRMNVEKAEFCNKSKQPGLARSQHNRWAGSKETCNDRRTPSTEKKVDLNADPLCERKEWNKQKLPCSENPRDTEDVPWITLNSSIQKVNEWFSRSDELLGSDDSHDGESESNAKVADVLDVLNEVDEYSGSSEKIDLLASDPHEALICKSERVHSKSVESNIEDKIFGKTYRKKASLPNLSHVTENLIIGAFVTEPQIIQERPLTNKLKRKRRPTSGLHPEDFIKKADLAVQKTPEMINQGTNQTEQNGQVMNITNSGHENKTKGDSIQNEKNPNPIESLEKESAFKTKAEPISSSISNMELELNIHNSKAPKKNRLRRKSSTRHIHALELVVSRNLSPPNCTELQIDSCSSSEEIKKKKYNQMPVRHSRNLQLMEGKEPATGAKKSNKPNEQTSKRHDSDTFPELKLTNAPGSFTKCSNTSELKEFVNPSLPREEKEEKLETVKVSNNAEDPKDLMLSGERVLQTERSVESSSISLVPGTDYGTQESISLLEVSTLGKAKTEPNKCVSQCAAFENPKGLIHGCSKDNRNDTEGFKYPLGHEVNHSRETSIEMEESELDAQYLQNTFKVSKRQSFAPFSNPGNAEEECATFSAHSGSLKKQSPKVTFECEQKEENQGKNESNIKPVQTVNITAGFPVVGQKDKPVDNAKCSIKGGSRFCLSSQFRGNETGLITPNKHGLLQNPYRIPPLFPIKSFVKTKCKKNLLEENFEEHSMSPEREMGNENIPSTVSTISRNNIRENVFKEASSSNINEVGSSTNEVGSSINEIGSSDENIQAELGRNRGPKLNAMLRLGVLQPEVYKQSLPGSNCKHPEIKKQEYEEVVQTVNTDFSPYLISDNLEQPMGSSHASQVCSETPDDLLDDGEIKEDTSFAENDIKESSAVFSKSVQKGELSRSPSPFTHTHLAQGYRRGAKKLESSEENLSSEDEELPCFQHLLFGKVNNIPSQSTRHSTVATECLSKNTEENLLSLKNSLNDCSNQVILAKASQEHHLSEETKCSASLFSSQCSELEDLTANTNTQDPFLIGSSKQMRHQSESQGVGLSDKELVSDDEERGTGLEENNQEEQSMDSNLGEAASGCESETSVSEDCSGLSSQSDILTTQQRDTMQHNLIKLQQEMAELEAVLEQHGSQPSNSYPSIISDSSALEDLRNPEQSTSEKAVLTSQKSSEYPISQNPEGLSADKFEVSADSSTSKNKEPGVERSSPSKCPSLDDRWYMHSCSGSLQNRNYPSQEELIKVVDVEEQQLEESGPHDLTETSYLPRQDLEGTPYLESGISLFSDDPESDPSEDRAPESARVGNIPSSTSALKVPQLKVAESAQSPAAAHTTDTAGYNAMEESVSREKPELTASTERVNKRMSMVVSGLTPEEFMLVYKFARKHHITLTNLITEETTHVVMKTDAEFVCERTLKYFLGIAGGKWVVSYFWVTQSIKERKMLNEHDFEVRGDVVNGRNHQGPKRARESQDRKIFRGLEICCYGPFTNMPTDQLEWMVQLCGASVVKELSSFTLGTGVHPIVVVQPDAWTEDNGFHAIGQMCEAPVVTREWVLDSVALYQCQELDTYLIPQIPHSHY
Chain of BRCA1-BARD1 (Q99728 whole entry, chain 2 of 2): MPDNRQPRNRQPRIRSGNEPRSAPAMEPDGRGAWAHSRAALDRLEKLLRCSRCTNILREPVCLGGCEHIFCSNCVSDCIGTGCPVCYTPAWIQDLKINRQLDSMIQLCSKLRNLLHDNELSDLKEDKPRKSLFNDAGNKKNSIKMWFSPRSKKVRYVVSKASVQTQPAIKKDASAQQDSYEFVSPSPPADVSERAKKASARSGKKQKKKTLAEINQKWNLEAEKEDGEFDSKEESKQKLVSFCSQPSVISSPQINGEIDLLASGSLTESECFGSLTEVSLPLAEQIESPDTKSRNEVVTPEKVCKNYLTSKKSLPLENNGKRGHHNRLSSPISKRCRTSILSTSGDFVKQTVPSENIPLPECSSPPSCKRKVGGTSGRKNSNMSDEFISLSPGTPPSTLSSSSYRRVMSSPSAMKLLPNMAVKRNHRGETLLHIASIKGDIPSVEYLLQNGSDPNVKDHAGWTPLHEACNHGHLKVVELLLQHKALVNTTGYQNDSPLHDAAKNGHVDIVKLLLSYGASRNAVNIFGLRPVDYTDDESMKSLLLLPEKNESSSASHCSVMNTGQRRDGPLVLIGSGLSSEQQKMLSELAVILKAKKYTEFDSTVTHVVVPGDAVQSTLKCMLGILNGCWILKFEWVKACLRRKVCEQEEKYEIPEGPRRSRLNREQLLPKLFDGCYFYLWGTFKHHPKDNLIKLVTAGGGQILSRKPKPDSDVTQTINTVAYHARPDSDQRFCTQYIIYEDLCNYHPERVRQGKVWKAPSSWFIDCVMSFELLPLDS

binding result (BRCA1-BARD1): binds
B1: CTC1-STN1-TEN1 (CST) complex (complex)
chain 1: AAGRAQVPSSEQAWLEDAQVFIQKTLCPAVKEPNVQLTPLVIDCVKTVWLSQGRNQGSTLPLSYSFVSVQDLKTHQRLPCCSHLSWSSSAYQAWAQEAGPNGNPLPREQLLLLGTLTDLSADLEQECRNGSLYVRDNTGVLSCELIDLDLSWLGHLFLFPRWSYLPPARWNSSGEGHLELWDAPVPVFPLTISPGPVTPIPVLYPESASCLLRLRNKLRGVQRNLAGSLVRLSALVKSKQKAYFILSLGRSHPAVTHVSIIVQVPAQLVWHRALRPGTAYVLTELRVSKIRGQRQHVWMTSQSSRLLLLKPECVQELELELEGPLLEADPKPLPMPSNSEDKKDPESLVRYSRLLSYSGAVTGVLNEPAGLYELDGQLGLCLAYQQFRGLRRVMRPGVCLQLQDVHLLQSVGGGTRRPVLAPCLRGAVLLQSFSRQKPGAHSSRQAYGASLYEQLVWERQLGLPLYLWATKALEELACKLCPHVLRHHQFLQHSSPGSPSLGLQLLAPTLDLLAPPGSPVRNAHNEILEEPHHCPLQKYTRLQTPSSFPTLATLKEEGQRKAWASFDPKALLPLPEASYLPSCQLNRRLAWSWLCLLPSAFCPAQVLLGVLVASSHKGCLQLRDQSGSLPCLLLAKHSQPLSDPRLIGCLVRAERFQLIVERDVRSSFPSWKELSMPGFIQKQQARVYVQFFLADALILPVPRPCLHSATPSTPQTDPTGPEGPHLGQSRLFLLCHKEALMKRNFCVPPGASPEVPKPALSFYVLGSWLGGTQRKEGTGWGLPEPQGNDDNDQKVHLIFFGSSVRWFEFLHPGQVYRLIAPGPATPMLFEKDGSSCISRRPLELAGCASCLTVQDNWTLELESSQDIQDVLDANKSLPESSLTDLLSDNFTDSLVSFSAEILSRTLCEPLVASLWMKLGNTGAMRRCVKLTVALETAECEFPPHLDVYIEDPHLPPSLGLLPGARVHFSQLEKRVSRSHNVYCCFRSSTYVQVLSFPPETTISIPLPHIYLAELLQGGQSPFQATASCHIVSVFSLQLFWVCAYCTSICRQGKCTRLGSTCPTQTAISQAIIRLLVEDGTAEAVVTCRNHHVAAALGLCPREWASLLDFVQVPGRVVLQFAGPGAQLESSARVDEPMTMFLWTLCTSPSVLRPIVLSFELERKPSKIVPLEPPRLQRFQCGELPFLTHVNPRLRLSCLSIRESEYSSSLGILASSC
chain 2: QPGSSRCEEETPSLLWGLDPVFLAFAKLYIRDILDMKESRQVPGVFLYNGHPIKQVDVLGTVIGVRERDAFYSYGVDDSTGVINCICWKKLNTESVSAAPSAARELSLTSQLKKLQETIEQKTKIEIGDTIRVRGSIRTYREEREIHATTYYKVDDPVWNIQIARMLELPTIYRKVYDQPFHSSALEKEEALSNPGALDLPSLTSLLSEKAKEFLMENRVQSFYQQELEMVESLLSLANQPVIHSASSDQVNFKKDTTSKAIHSIFKNAIQLLQEKGLVFQKDDGFDNLYYVTREDKDLHRKIHRIIQQDCQKPNHMEKGCHFLHILACARLSIRPGLSEAVLQQVLELLEDQSDIVSTMEHYYTAF
chain 3: LPKPGTYYLPWEVSAGQVPDGSTLRTFGRLCLYDMIQSRVTLMAQHGSDQHQVLVCTKLVEPFHAQVGSLYIVLGELQHQQDRGSVVKARVLTCVEGMNLPLLEQAIREQRLYKQERGGSQ

binding result (mCherry-BLM): binds
B2: green fluorescent protein (GFP)-DNA2 (enzyme, UniProt P51530 1-1060, looked up)
chain: MEQLNELELLMEKSFWEEAELPAELFQKKVVASFPRTVLSTGMDNRYLVLAVNTVQNKEGNCEKRLVITASQSLENKELCILRNDWCSVPVEPGDIIHLEGDCTSDTWIIDKDFGYLILYPDMLISGTSIASSIRCMRRAVLSETFRSSDPATRQMLIGTVLHEVFQKAINNSFAPEKLQELAFQTIQEIRHLKEMYRLNLSQDEIKQEVEDYLPSFCKWAGDFMHKNTSTDFPQMQLSLPSDNSKDNSTCNIEVVKPMDIEESIWSPRFGLKGKIDVTVGVKIHRGYKTKYKIMPLELKTGKESNSIEHRSQVVLYTLLSQERRADPEAGLLLYLKTGQMYPVPANHLDKRELLKLRNQMAFSLFHRISKSATRQKTQLASLPQIIEEEKTCKYCSQIGNCALYSRAVEQQMDCSSVPIVMLPKIEEETQHLKQTHLEYFSLWCLMLTLESQSKDNKKNHQNIWLMPASEMEKSGSCIGNLIRMEHVKIVCDGQYLHNFQCKHGAIPVTNLMAGDRVIVSGEERSLFALSRGYVKEINMTTVTCLLDRNLSVLPESTLFRLDQEEKNCDIDTPLGNLSKLMENTFVSKKLRDLIIDFREPQFISYLSSVLPHDAKDTVACILKGLNKPQRQAMKKVLLSKDYTLIVGMPGTGKTTTICTLVRILYACGFSVLLTSYTHSAVDNILLKLAKFKIGFLRLGQIQKVHPAIQQFTEQEICRSKSIKSLALLEELYNSQLIVATTCMGINHPIFSRKIFDFCIVDEASQISQPICLGPLFFSRRFVLVGDHQQLPPLVLNREARALGMSESLFKRLEQNKSAVVQLTVQYRMNSKIMSLSNKLTYEGKLECGSDKVANAVINLRHFKDVKLELEFYADYSDNPWLMGVFEPNNPVCFLNTDKVPAPEQVEKGGVSNVTEAKLIVFLTSIFVKAGCSPSDIGIIAPYRQQLKIINDLLARSIGMVEVNTVDKYQGRDKSIVLVSFVRSNKDGTVGELLKDWRRLNVAITRAKHKLILLGCVPSLNCYPPLEKLLNHLNSEKLIIDLPSREHESLCHILGDFQRE
